Source: a protein production outcome set (Wang et al. 2014)

Assay: label from the status in PepcDB records
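Note: failed if final PepcDB status was selected cloned or expressed and not failed if soluble or beyond.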

Sequence	protein production
PASGVRPAEAADLAAVAAYDSACSPADRPRFLEHWLAGPGHRTFVRLVDGRLTGYGVVRPALDSLRVGPLFADSAEDARALFTALTADAGEIAMDIPETNTAAVALAREAGLTPSFETARMYTGPVRPFAADRVYGITSLELG	failed
PDHKMSDVDTRHVAGLMRINHTGEVCAQALYQGQALTAKLPKVRKAMEHAAEEEIDHLVWCEQRIHQLGSHTSVLNPLFYGLSFGIGAVAGVISDRVSLGFVAATEDQVCKHLGEHLEQLPIEDGKSRAILEQMLSDEEHHAE	failed
PDMDPRCPARADPRKLHDAIARFGVNHLFGSPALLRVLAEYGKPLPTLRCVTSAGAPVPPYVVAQIRALLSDEAQFLTPYGATECLPIAVIESRE	failed
PDVDGMITLKVDNLTYRTSPDSLRRVFEKYGRVGDVYIPREPHTKAPRGFAFVRFHDRRDAQDAEAAMDGAELDGRELRVQVARYGRRDL	not failed
PELKCPVIGCDGQGHISGKYTSHRTASGCPLAAKRQKENPLNGASLSWKLNKQELPHCPLPGCNGLGHVNNVFVTHRSLSGCPLNAQVIKKGKVS	not failed
PELPTCLTRRLADYATEKPLVRLFFQGEEATVPFISQTSRELNMDINILLANIDRFDGVTCGVLVVELTANPLLLEAFINRCEQAGITVEVLGYVLPDGL	not failed
PETYGRLVEPTTLKIERLLPGPIERVWAYLTQSDLRRRWLASGEMRLAPDAPFELVWRNDELSDPPGHRPEGFSEEEKMASRIITVVPPHHLVFSWGESGEVSIELQALGKDVLLTLIHRRLVGRKTKLDVSAGWHVHLDILAARLQEKEPAPFWDTWLALKEEYEPR	failed
PEVGSSEHKLKIRNIKLSDYDDIFEIMESVYADIGGPWTKKELRSHLNHFPEGQICIEDNGKVIAAAFSLIVNYSNYGDKHTYQQITGDGLLTNHDPEGDTLYGIDIFVHPEFRGLRLGRRLYDARKELCEKLNLRAIIVGGRIPGYKNFAKKLTPRQYIEEVKKKEIFDPVLTFQLANDFHLRKIIQGYLPDDRDSKAYAALLEWKNALYEIEE	failed
PGAAPGLFALESAIDEMALASGMDPLAFRKLNLSDKDQSVGLPWSSNHLPEAIDKAAERFGWQARKAAVGSMREGDEIIGYGMGACNWEAHQVPTDARVVLRSDGTALAQCGLQDIGTGTYTIVAQTVSELTGIPIERVEVELGSSSFPPGPVSGGSWVTASVMPAIAGATREALQKLRQYAISKDAVFAGQDPESIKVENGQLVMGEQRASFVDVLKGQRLSRAEGNFQSGMPEAGKYSFRSFGVHFVEVRWDPGISSLRVSRVVSAIDVGKVINPLAARNQVEGAIVMGIGMALFEAGEYDPRSGMPVNNNYAEYVVPVHADQPDIDVMLLDYPDYNLGEFGARGIGEIGVTGLAAAVANAVYHATGKRVRSLPITKEKLMAGL	failed
PGAPSTVRISKNVDGIHLSWEPPTSPSGNILEYSAYLAIRTAQMQDNPSQLVFMRIYCGLKTSCTVTAGQLANAHIDYTSRPAIVFRISAKNEKGYGPATQIRWLQGNSK	not failed
PGFIDMHAHSELRLFENPGAREKLTQGITTEVLGQDGVSVAPVPPNLTDEWAERVKSLDGTLGETWPWHTVSGYLEALESVEPAVNCAYYAPHGNIRSMLAGFEDRPLSGEHVVAAGPVTGQRLDRPKSDHDTAPGELDAIRQELEVALEEGAFGMSKGMIYPPSSYARDDELVALADTLAKRDSFMISHVWNETDRVVESIDRYLDICRRGGCHAHVSHLKVGGQQNWGDSEAVLDLFDDAVDRGQRVTFDQYPYTAGSTMLTALLPPWARQGDSEAIRHRLNSAAVRDRIAADISQPGDWENLAYAAGSWDNILITRTGSGRYQGDTIADIAAEMDREPVDAMCELLVAEELDVTMADFVMAETDIERFLADDRGTFCTDGIFGGKPHPRAIGAFSRILERYVRERNVLSPELLAYKAAGNPADILG	failed
PGLRELCIQKAPGERLGISIRGGARGHAGNPRDPTDEGIFISKVSPTGAAGRDGRLRVGLRLLEVNQQSLLGLTHGEAVQLLRSVGDTLTVLVCDGFE	not failed
PGLVDVHTHFMPERVLRKVWDYFDGLGPLTGGLEWPITYRSDEDQRLATIREFGVRAFTAMLYPHKAGMARWLNSWAVDFARRTPDCLHTATLFPEPGVEAYVLEAVEQGARVFKAHVQVGAYDPADELLDPVWGLLAEAGVPVVMHCGSGPAPGKHTGPGPVAQVLARHPRLRLVVAHLGMPEYEDFLDLAERYGEVRLDTTMAFTDFSERLAPFPRGARPRLAGLGDRILLGTDFPNIPYRYVDQLYALERLGLGDDWLRSVCHGNGARLFGL	failed
PGYTLTRELPLTEYRALYRAAEDTWAARLDWSPEQYDAHFAREDVRLLALRDSEGRPVAFAELELCAPDSRAELTHLAVHPAQRGQGLGRALLALAAAEAAQSPEIRTLRARAHDHMSAARQLYARAGLSHCRAVVTSLREG	failed
PHSMEPQVTLNVTFKNEIQSFLVSDPENTTWADIEAMVKVSFDLNTIQIKYLDEENEEVSINSQGEYEEALKMAVKQGNQLQMQVHEG	not failed
PKRTAATAGALMIGVAVVSLFTVFGASLKATMDQTVSRSFAGDVAVSAPSFGAGGSGLSPRLAGAIQELPEVDTAVGLGRGVAEVDGQGRALTVTDPAALNRTFDLGAVHGSLDDLGTDGIAITENEADERGLTTGDTTRLTFTDGHSGTFTVRAVYGQSELAGDYVITRAAWAPHRTQDSDTLVAVAFEDGVGADAGKAAVEKVADRYGNPEVQTREEYAESSAGGIDMMLTLVYALLALAVLIALLGISNTLTLAVHERTRELGLLRAVGQTRAQLRAMVRWESVLVAAFGTVGGLGLGAFLGWVLVAASDGASDSAFAFAVPPAQLAVVALVGLAAGALAGVRPARRASRLDVLRAVAT	failed
PLLIFPPWINKFYIMDLRPENSMIRWLTAQGFTVFVASWVNPDQTLAAKTFEDYMVEGIYDAAQQVMTQCGVDRVNTVGYCIGGTLLSVALAHMAARGDKRINSATFFAAQQDFAEAGDLLLFTNEEWLQSIEQQMDQAGGFLPSQSMADTFNALRGNDLIWSFFVSNYLMGKEPRPFDLLFWNADQTRMPKALHLFYLRNFYKDNALTTGKLSLGGERLDLSKVKIPIYVQSSKDDHIAPYRSVYRGARAFGGPVTFTMAGSGHI	failed
PMNGKEKAASYDKVVDVDVKLGQVSVKNPKGTAHEMPKTFTFDAVYDWNAKQFELYDETFRPLVDSVLQGFNGTIFAYGQTGTGKTYTMEGIRGDPEKRGVIPNSFDHIFTHISRSQNQQYLVRASYLEIYQEEIRDLLSKDQTKRLELKERPDTGVYVKDLSSFVTKSVKEIEHVMNVGNQNRSVGATNMNEHSSRSHAIFVITIECSEVGLDGENHIRVGKLNLVDLAGSERQAKTGAQGERLKEATKINLSLSALGNVISALVDGKSTHIPYRDSKLTRLLQDSLGGNAKTVMVANVGPASYNVEETLTTLRYANRAKNIKNKPRVNEDPKDAL	failed

Sequence	protein production
PNVVKMNKPFISLCPEITRAHALTLMDWLEDEHVTRHLSDSRHVSRFIEQVIDRVQLPVLTHLFNQGGRFFMAYDRHDVPVGFVRLVKTGSDCEIVLVIGNRDNWGRKLGASAIREGMKLAFFEMRAARLIAKVHPDNERSLNAFLRCGFVLE	not failed
PPHYDYAIGIRGDSMLPKYEQGDMLYIVDKGMSTYSGQLCIVVHNGNTYFKKVYTEHDGLRLVSLNKKYSDIFIGYPPAEDTYIKIYDVVGSFTPIEF	failed
PPSTLIGPGDDAALVRADDGRVAVSADMLVQDRHFRLDWSSPRDVGRKAVAQNAADVAAMGARPTAFLVSLGLPPDTSIDVADGISAAIGESAEELGAGVVGGDLVQAGQVVISVTVLGDLGGRS	failed
PQAMIIDVVADVVCPWCYLGWRRLKSAIALRPDLKAQLIWRPYQLDPTLPEDGVDRKAYMAQKFKDPEKLKAVHTALVEGGAEEGIVFNFEAIALSPNTNAAHRLIRWALTAGVQDHVVEALFKAYFEQGLDIGDPIVLGDIAEAAGMERLVVLQLLSEGADKEAVAREHAMAVQGGVTGVPFAIFAGKVAVVGAESPERIAQAIDQALAA	failed
PREPVVNDEMCDVCEVWTAESLFPCRVCTRVFHDGCLRRMGYIQGDSAAEVTEMAHTETGWSCHYCDNINLLLTEE	not failed
PRKASRKPPREESSATCVLEQPGALGAQILLVQRPNSGLLAGLWEFPSVTWEPSEQLQRKALLQELQRWAGPLPATHLRHLGEVVHTFSHIKLTYQVYGLALEGQTPVTTVPPGARWLTQEEFHTAAVSTAMKKVFRVYQGQ	not failed
PRMIVFGAIDFASALARAGKFLGHHVTVCDARPVFATPARFPDADEVVVEWPHEYLARTAVDARTVLCVLTHDAKFDIPLLRLALRLPVAYVGAMGSRRTHLDRAARLREAGV	failed
PSLPGIEAAARYLPATQGMEIGGDFYDLVATVGRAAAVIGDVQGHNVTAAGLMGQIRTAVRAYTTVGQAPGQVMRSTNRLMIDLGTDLFASCVYLRLDPARQRVVMARAGHPPPLLRKPDGQVRVLDLAGGPLLGIDADATYTTTEFALAPGSVLALYTDGLIESPGIDIEDALAELGERLAESGDEPLDELADRLVRHTATAEERLDDIALLLLRARA	failed
PSMPASPVLTKAGITWLSLQWSKPSGTPSDEGISYILEMEEETSGYGFKPKYDGEDLAYTVKNLRRSTKYKFKVIAYNSEGKSNPSEVVEFTTCPD	not failed
PTRQVLQGSRCRLEPLTLAHASDLFAAHQLAPDARSWTWLLREPESNLAEFSAWVEQVATLADPIHFAVVDQQRGKAVGSLALMRIDIAHGVVEVGHVHFSPLLSRTAMATEAHWLLMQYVFDTLGYRRYEWKCNSLNIPSARAARRLGFQYEGRFRQALVSKGHNRDTDWFSVIDGEWPELD	failed
PTSSTTAALVMGDALAVALLEARGFTAEDFALSHPGGALGRKLLLRVNDIMHTGDEIPHVGLQATLRDALLEITRKNLGMTAICDDDMNIIGIFTDGDLRRVFDTGVDMRDASIADVMTRGGIRIRPGTLAVDALNLMQSRHITCVLVADGDHLLGVVHMHDLLRA	not failed
PTSSTTATLVMGDALAVALLKARGFTAEDFALSHPGGALGRKLLLRVSDIMHTGDEIPHVNKHATLRDALLEITRKNLGMTVICDESMKIDGIFTDGDLRRVFDMGGDMRQLGIAEVMTPGGIRVRPGILAVDALNLMQSRHITSVLVADGDQLLGVLHMHDLLRA	failed
PVLTQTSEQAPSSAPRDVQARMLSSTTILVQWKEPEEPNGQIQGYRVYYTMDPTQHVNNWMKHNVADSQITTIGNLVPQKTYSVKVLAFTSIGDGPLSSDIQVITQTG	not failed
PVTQVMTPRPVVFRVDATMTINEFLDKHKDTPFSRPLVYSEQKDNIIGFVHRLELFKMQQSGSGQKQLGAVMRPIQVVLNNTALPKVFDQMMTHRLQLALVVDEYGTVLGLVTLEDIFEHLVGE	not failed
PVVVAVGAHREAAAVVDTAARLARDTASPLEVVHVRRTAVVEEQAADTETDEQAKAAVTAHLDRLGGMGVTATGQILTGVGDHAAAGRALARHAAEVGARTVAVGRSPRGPLAQFADGSFTSALTHAATCTVVLVDPNAEPR	failed
QAELMTLTIVKGAQGFGFTIADSPTGQRVKQILDIQGCPGLCEGDLIVEINQQNVQNLSHTEVVDILKDCPIGSETSLIIHRG	not failed
QDWLTFQKKHITNTRDVDCDNIMSTNLFHCKDKNTFIYSRPEPVKAICKGIIASKNVLTTSEFYLSDCNVTSRPCKYKLKKSTNKFCVTCENQAPVHFVGVGSC	not failed
QGHLVHMTVVSGSNVTLNISESLPENYKQLTWFYTFDQKIVEWDSRKSKYFESKFKGRVRLDPQSGALYISKVQKEDNSTYIMRVLKKTGNEQEWKIKLQVLDPVPKPVIKIEK	not failed
